Results: patent publication US20250049888A1, “USE OF THE NEGR1 PROTEIN AND BIOLOGICALLY ACTIVE FRAGMENTS THEREOF IN THE THERAPEUTIC TREATMENT OF ALK-RELATED DISEASES” (FONDAZIONE TELETHON ETS (70%), priority 2021, published 2025)

What was measured:
[1] = tested on: N2a cells; assay: N2a proliferation, cell number at DIV5; assay type: cell-based, murine; conditions: 200 ng daily, vs GFP
Protocol: Next, 10,000 naive N2a cells were seeded and treated daily with 200 ng Negr1, PepA, PepB, PepC, or GFP. At DIV5, cell number was evaluated.

[2] = tested on: N2a cells; assay: N2a cell growth, MTT assay; assay type: cell-based, murine; conditions: 500 ng/ml daily, vs GFP
Protocol: (§1) The 3-(4,5-dimethylthiazol-2-yl)-2,5-diphenyl tetrazolium bromide (MTT) assay was performed to evaluate culture vitality. N2a cells were cultured in a 96-well plate at a concentration of 5×10^3 cell/cm^2. Treatment condition is indicated in the result section. At the end of the treatment, the MTT solution was added to the cell medium at a final concentration of 0.25 mg/mL. The incubation lasted 30 minutes at 37° C. Next, the medium was removed and the formazan precipitates were collected in DMSO (200 μL). The absorbance was measured at 570 nm using a spectrophotometer (Varioskan LUX, Thermofisher) as a proxy for cell viability. Relative cell viability fold is expressed over the control condition.
At the physiological level, Negr1 exists as a GPI-anchored membrane-bound protein and as a soluble protein released upon metalloprotease cleavage (Sanz et al. 2015; Pischedda and Piccoli 2015). Thus, the inventors studied whether ectopic treatment with soluble recombinant Negr1 (Negr1) might modulate cancer cell growth. […] At DIV5, cellular growth was evaluated by MTT assay.
To further narrow down the minimal biologically active sequence within PepA, the PepA structure was analysed in silico. […] At DIV5, cellular growth was evaluated by MTT assay.

[3] = tested on: A549 (adenocarcinoma alveolar basal epithelial cells); assay: Growth of human cancer-derived cell line, MTT assay; assay type: cell-based; conditions: 200 ng daily, vs GFP
Protocol: as §1
(§2) Next, the capability of Negr1 and peptide PepA to halt the growth of human cancer-derived cell lines, namely U87 (glioblastoma), SK-Mel5 (melanoma), MCF7 (breast adenocarcinoma), A549 (adenocarcinoma alveolar basal epithelial cells), and SH-SY5Y (neuroblastoma) was tested. To this aim, each line was treated daily with 200 ng GFP, rNegr1, or PepA. At DIV5, cellular growth was evaluated by MTT assay. […] Such results are in good agreement with the expression of the receptor ALK, that has been experimentally detected in cancer cell lines of ectodermal origin (including small cell lung carcinoma, breast carcinoma, melanoma, neuroblastoma, and glioblastoma) (Dirks et al. 2002).

[4] = tested on: MCF7 (breast adenocarcinoma); assay: as above; assay type: cell-based; conditions: 200 ng daily, vs GFP
Protocol: as §1, §2

[5] = tested on: SH-SY5Y (neuroblastoma); assay: as above; assay type: cell-based; conditions: 200 ng daily, vs GFP
Protocol: as §1, §2

[6] = tested on: SK-Mel5 (melanoma); assay: as above; assay type: cell-based; conditions: 200 ng daily, vs GFP
Protocol: as §1, §2

[7] = tested on: U87 (glioblastoma); assay: as above; assay type: cell-based; conditions: 200 ng daily, vs GFP
Protocol: as §1, §2

[8] = tested on: N2a cells; assay: N2a xenograft tumor growth in CD1 nude mice; assay type: in vivo
Protocol: 1 million N2a cells were suspended in 150 μl of DMEM high glucose and delivered subcutaneously above the left rear paw in 8-week old nu/nu mice (Charles River) by injection with a micro-syringe (Hamilton). All procedures involving animals were approved by Institutional and National Agencies (authorization 559/2016-PR).
Xenograft mouse models represent an established tool to investigate cancer progression in vivo. To this aim, 1 million N2a cells (naive, clone 3, and clone 11) was injected subcutaneously (s.c.) in immunodeficient CD1 nude mice. Tumor volume was monitored […] by measuring tumor size with a Vernier caliper. Tumor volume was calculated using the ellipsoid formula (length×width×height×0.52).
To further assess the anti-neoplastic activity of PepA, 1 million N2a cells were injected s.c in 6-weeks old CD1 nude mice. When the tumor reached 100 mm^3 volume, 2 μg of GFP or PepA were injected in situ. The treatment was repeated every second day, and tumor growth was monitored daily.
Next, 1 million N2a cells were injected s.c in 6-weeks old nude mice. […] The treatment was repeated every second day and the tumor growth was monitored daily.
Treatment was repeated every second day and tumor growth was monitored daily.
To this aim, 1 million N2a cells were injected s.c in 6-weeks old CD1 nude mice. […] The treatment was repeated every second day and the tumor growth was monitored daily.

[9] = Presence in tumor, liver and kidney by STREP-pulldown after in situ injection; assay type: in vivo, mice; conditions: after in situ injection of 2 μg every second day, day 9
Protocol: HEK293 cells transfected with the relative construct were lysed in RIPA buffer (150 mM NaCl, 50 mM HEPES, 0.5% NP40, 1% Sodium-deoxycholate) for one hour at 4° C. and then processed for streptavidin immunoprecipitation. Proteins were eluted from STREP resin in elution buffer (2.5 mM Desthiobiotin, 100 mM Tris-HCL, 150 mM NaCl, 1 mM EDTA) in mild agitation for one hour at 4° C. The protein concentration was measured via standard Bradford assay (Bio-Rad), and protein purity was assessed by SDS-PAGE followed by silver staining. Synthetic peptides were purchased at Genscript Nederland. Mice tissues were lysed in RIPA buffer (150 mM NaCl, 50 mM HEPES, 0.5% NP40, 1% Sodium-deoxycholate, 1 ml/mg of tissue) for one hour at 4° C. and then processed for streptavidin immunoprecipitation. Proteins were eluted from STREP resin in Laemmli buffer.
At day 9 post injection (or earlier in case the tumor reached 2.5 cm^3 volume), the animals were sacrificed and the mice tissues were harvested and analysed for the presence of GFP and PepA.

[10] = tested on: CD34; assay: Tumor neo-vascularization by CD34 immunofluorescence; assay type: in vivo, mice; conditions: tumors treated in situ, vs GFP
Protocol: Tumors were dissected, post-fixed for 2 hours by immersion in 4% PFA, then included in OCT and stored at −80° C. until processing. 14 μm sections were obtained after serial sectioning on Leica cryostat and mounted on Polysine Slides (Thermo Fischer Scientific). The slices were saturated in 2.5% BSA, 10% NGS, 0.2% Triton X-100, PBS 1×, for 1 hour at RT and incubated with the primary antibody O/N at 4° C. (Anti-CD34 antibody [EP373Y], ABCAM, ab81289). After 3 washes in PBS 1×-0.2% Triton X-100 the sections were incubated for 1 h with the conjugated secondary antibody at RT (AffiniPure Goat Anti-Rabbit IgG (H+L) Alexa Fluor 594, Jackson ImmunoResearch, 111-585-003). The slices were then rinsed 3 times in PBS 1×-0.2% Triton X-100, rinsed once in PBS1× and then mounted in water-based mounting media. Sections were kept at 4° C. in the dark until acquisition with a Zeiss Axio Imager M2 equipped with 40× objective.
Cancer growth requires and triggers vascularization. In particular, cancer mass is characterized by the presence of immature vessels decorated by CD34 protein. Thus, the inventors analyzed tumor neo-vascularization by detecting CD34 protein.

[11] = tested on: ALK; assay: ALK protein expression level in N2a cells, western blotting; assay type: cell-based, murine; conditions: 300 ng/ml daily for 5 days, vs GFP
Protocol: Protein level and relative phosphorylation was assessed by western blotting. Briefly, upon a wash in PBS, cells were solubilized in lysis buffer (150 mM NaCl, 50 mM HEPES, 0.5% NP40, 1% sodium-deoxycholate). After 1 hour under mild agitation, the lysate was clarified by centrifugation for 20 min at 16,000 g. All experimental procedures were performed at 4° C. Protein concentrations were evaluated via Bradford assay (Bio-Rad, USA). For Western blotting experiments, an equal amount of proteins was diluted with 0.25% 5× Laemmli buffer. The samples were separated on 10% SDS-PAGE gels which were transferred onto nitrocellulose membrane (Sigma-Aldrich) at 80 V for 120 min at 4° C. […] Antibodies were applied overnight in blocking buffer (20 mM Tris, pH 7.4, 150 mM NaCl, 0.1% Tween 20, and 5% nonfat dry milk). Proteins were detected using the ECL prime detection system (GE Healthcare). The ECL signals were acquired with the imaging ChemiDoc Touch system (Bio Rad Laboratory Italy, Segrate, Italy). The optical density of the specific bands was quantified with ImageLab software (Bio Rad).

[12] = tested on: MYCN; assay: MYCN protein expression level in N2a cells, western blotting; assay type: cell-based, murine; conditions: 300 ng/ml daily for 5 days, vs GFP
Protocol: Protein level and relative phosphorylation was assessed by western blotting. Briefly, upon a wash in PBS, cells were solubilized in lysis buffer (150 mM NaCl, 50 mM HEPES, 0.5% NP40, 1% sodium-deoxycholate). After 1 hour under mild agitation, the lysate was clarified by centrifugation for 20 min at 16,000 g. All experimental procedures were performed at 4° C. Protein concentrations were evaluated via Bradford assay (Bio-Rad, USA). For Western blotting experiments, an equal amount of proteins was diluted with 0.25% 5× Laemmli buffer. The samples were separated on 10% SDS-PAGE gels which were transferred onto nitrocellulose membrane (Sigma-Aldrich) at 80 V for 120 min at 4° C. […] Proteins were detected using the ECL prime detection system (GE Healthcare). […] The optical density of the specific bands was quantified with ImageLab software (Bio Rad).
The inventors monitored whether treatment with rNegr1 or PepA might impact on ALK-MYCN pathway. […] At DIV5, the culture was processed for western blotting and ALK and MYCN protein expression levels were evaluated.
At DIV5, the culture was processed for western-blotting, and ALK and MYCN protein expression was evaluated.

B1: PepC: Negr1 IgG-like domain, SEQ ID NO:17, strep-FLAG tagged recombinant protein (protein)
chain: APTIQEIKSGTVTPGRSGLIRCEGAGVPPPAFEWYKGEKRLFNGQQGIIIQNFSTRSILTVTNVTQEHFGNYTCVAANKLGTTNASLP
modifications: strep-FLAG tag; PepC
N2a proliferation (cell number) at DIV5 [1]: did not

B2: PepB: Negr1 IgG-like domain, SEQ ID NO:16, strep-FLAG tagged recombinant protein (protein)
chain: PKIYDISNDMTINEGTNVTLTCLATGKPEPVISWRHISPSAKPFENGQYLDIYGITRDQAGEYECSAENDVSFPDVKKVRVI
modifications: strep-FLAG tag; PepB
N2a proliferation (cell number) at DIV5 [1]: did not

B3: PepA: first Negr1 IgG-like domain, SEQ ID NO:8, strep-FLAG tagged recombinant protein from HEK293 cells (protein)
chain: VDFPWAAVDNMLVRKGDTAVLRCYLEDGASKGAWLNRSSIIFAGGDKWSVDPRVSISTLNKRDYSLQIQNVDVTDDGPYTCSVQTQHTPRTMQVHL
modifications: strep-FLAG tag; PepA
N2a growth (MTT) at DIV5 [2]: significantly reduced N2a growth | N2a proliferation (cell number) at DIV5 [1]: significantly reduced N2a proliferation | growth of A549 cells (MTT) at DIV5 [3]: significantly reduce the growth | growth of MCF7 cells (MTT) at DIV5 [4]: significantly reduce the growth | growth of SH-SY5Y cells (MTT) at DIV5 [5]: significantly reduce the growth | growth of SK-Mel5 cells (MTT) at DIV5 [6]: significantly reduce the growth | growth of U87 cells (MTT) at DIV5 [7]: significantly reduce the growth | tumor growth (tumor volume, fold over day 1) ([8]; 2 μg in situ every second day, vs GFP): robust growth reduction in tumor | tumor growth (tumor volume, fold over day 1) ([8]; 10 μg in situ every second day, vs PEG-scramble peptide): robust growth reduction in tumor | presence in mice tissues (STREP-pulldown) [9]: present in the tumor, liver, and kidney | tumor vascularization (total area stained by CD34 and average vessel area) [10]: strongly reduced vascularization | ALK protein level [11]: robust reduction of ALK and MYCN protein levels | MYCN protein level [12]: robust reduction of ALK and MYCN protein levels
